Reference: patent publication US20110189172A1

Target: IL-1 receptor (human) (UniProt P14778)
Experiment: cell-based or functional assay

Sequence of UniProt P14778 (P14778 18-569): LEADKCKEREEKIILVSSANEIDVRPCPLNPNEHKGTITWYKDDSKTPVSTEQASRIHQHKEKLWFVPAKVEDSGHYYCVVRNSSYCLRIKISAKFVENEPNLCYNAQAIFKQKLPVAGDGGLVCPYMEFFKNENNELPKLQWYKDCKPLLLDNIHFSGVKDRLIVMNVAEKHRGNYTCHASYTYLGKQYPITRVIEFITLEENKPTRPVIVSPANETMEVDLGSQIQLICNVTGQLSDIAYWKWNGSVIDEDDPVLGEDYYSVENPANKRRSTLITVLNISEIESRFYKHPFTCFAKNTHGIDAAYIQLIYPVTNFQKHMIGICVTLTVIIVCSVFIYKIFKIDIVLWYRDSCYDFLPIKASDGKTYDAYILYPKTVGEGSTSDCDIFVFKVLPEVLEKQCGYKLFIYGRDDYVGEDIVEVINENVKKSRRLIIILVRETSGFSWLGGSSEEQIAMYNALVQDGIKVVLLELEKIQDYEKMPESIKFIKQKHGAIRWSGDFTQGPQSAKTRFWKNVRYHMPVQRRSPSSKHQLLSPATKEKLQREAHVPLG

IC50 (pM), inhibition of IL-1β induced IL-8 production in human whole blood: 53.4 pM
Substance: Kineret® (anakinra), recombinant IL-1 receptor antagonist (IL-1Ra) (from UniProt P18510 26-177) (ligand)
